Assay results published in patent publication US20200164038A1, “MODIFIED NUCLEOSIDE, NUCLEOTIDE, AND NUCLEIC ACID COMPOSITIONS” (ModernaTX, Inc., priority 2011, published 2020).

How the values were obtained:
[1] = Time course in vivo study of LNP, serum G-CSF or EPO by ELISA; details: mice IV
Description: (§1) Formulations, listed in Table 31, were characterized by particle size, zeta potential, and encapsulation.
LNP formulations, shown in Table 31 (above), were administered to mice (n=5) intravenously (IV) at a single modified mRNA dose of 0.5, 0.05 or 0.005 mg/kg. The mice were bled at 8 hours, 24 hours, 72 hours and 6 days after they were administered with G-CSF or EPO modified mRNA formulations to determine protein expression using ELISA.

[2] = LNP formulations in mice, serum G-CSF or EPO by ELISA; assay type: in vivo; details: mice IV; for time out to which protein expression was detectable: LNP
Description: as §1
LNP formulations, shown in Table 31 (above), were administered to mice (n=4) intravenously (IV) at a single modified mRNA dose 0.05 mg/kg or 0.005 mg/kg. There was also 3 control groups of mice (n=4) that were untreated. The mice were bled at 2 hours, 8 hours, 24 hours, 48 hours and 72 hours after they were administered with G-CSF or EPO modified mRNA formulations to determine the protein expression. Protein expression of G-CSF and EPO were determined using ELISA.

[3] = Non-human primate in vivo study for G-CSF and EPO, serum protein by ELISA; design: species or system cynomolgus monkey
Description: as §1
(§2) LNP formulations, shown in Table 31 (above), were administered to non-human primates (NHP) (cynomolgus monkey) (n=2) as intravenous injection (IV). The NHP were administered a single modified mRNA IV dose of 0.5 mg/kg, 0.05 mg/kg or 0.005 mg/kg of G-CSF or EPO in a dose volume of 0.5 mL/kg. The NHPs were bled before dosing with the modified mRNA LNP formulations to determine protein expression in the serum and a baseline complete blood count. After administration with the G-CSF modified mRNA formulation the NHP were bled at 8, 24, 48 and 72 hours to determined protein expression. After administration with the EPO modified mRNA formulation the NHP were bled at 8, 24, 48, 72 hours and 7 days to determined protein expression.
(§3) Samples collected from the NHPs after they were administered with G-CSF or EPO modified mRNA formulations were analyzed by ELISA to determine protein expression. Neutrophil and reticulocyte count was also determined pre-dose, 24 hours, 3 days, 7 days, 14 days and 18 days after administration of the modified G-CSF or EPO formulation.

[4] = test system: Neutrophil and reticulocyte count; assay: Non-human primate hematology: neutrophil and reticulocyte count, hemoglobin, hematocrit, red blood cells; assay type: in vivo, cynomolgus monkey; details: Female NHP
Description: as §2, §3

[5] = LNP NPA-030-2, 0.005 mg/kg, 8 hours
[6] = LNP NPA-030-2, 0.005 mg/kg, 24 hours
[7] = LNP NPA-030-2, 0.05 mg/kg, 8 hours
[8] = LNP NPA-030-2, 0.05 mg/kg, 24 hours

B1: G-CSF: human G-CSF mRNA, SEQ ID NO: 6, polyA about 160 nt, Cap1, fully modified with 5-methylcytosine and pseudouridine (nucleic acid, listed as Homo sapiens)
chain: GGGAAAUAAGAGAGAAAAGAAGAGUAAGAAGAAAUAUAAGAGCCACCAUGGCCGGUCCCGCGACCCAAAGCCCCAUGAAACUUAUGGCCCUGCAGUUGCUGCUUUGGCACUCGGCCCUCUGGACAGUCCAAGAAGCGACUCCUCUCGGACCUGCCUCAUCGUUGCCGCAGUCAUUCCUUUUGAAGUGUCUGGAGCAGGUGCGAAAGAUUCAGGGCGAUGGAGCCGCACUCCAAGAGAAGCUCUGCGCGACAUACAAACUUUGCCAUCCCGAGGAGCUCGUACUGCUCGGGCACAGCUUGGGGAUUCCCUGGGCUCCUCUCUCGUCCUGUCCGUCGCAGGCUUUGCAGUUGGCAGGGUGCCUUUCCCAGCUCCACUCCGGUUUGUUCUUGUAUCAGGGACUGCUGCAAGCCCUUGAGGGAAUCUCGCCAGAAUUGGGCCCGACGCUGGACACGUUGCAGCUCGACGUGGCGGAUUUCGCAACAACCAUCUGGCAGCAGAUGGAGGAACUGGGGAUGGCACCCGCGCUGCAGCCCACGCAGGGGGCAAUGCCGGCCUUUGCGUCCGCGUUUCAGCGCAGGGCGGGUGGAGUCCUCGUAGCGAGCCACCUUCAAUCAUUUUUGGAAGUCUCGUACCGGGUGCUGAGACAUCUUGCGCAGCCGUGAAGCGCUGCCUUCUGCGGGGCUUGCCUUCUGGCCAUGCCCUUCUUCUCUCCCUUGCACCUGUACCUCUUGGUCUUUGAAUAAAGCCUGAGUAGGAAG
modifications: Cap1; polyA; 5-methylcytosine, pseudouridine
G-CSF Serum Concentration [1, 5]: 1,550.6 pg/ml
G-CSF Serum Concentration [1, 6]: 5,068.9 pg/ml
G-CSF Serum Concentration [1, 7]: 462,312.5 pg/ml
G-CSF Serum Concentration [1, 8]: 80,903.8 pg/ml
G-CSF Serum Concentration ([1]; LNP NPA-030-2, 0.5 mg/kg, 8 hours): >1,250,000 pg/ml
G-CSF Serum Concentration ([1]; LNP NPA-030-2, 0.5 mg/kg, 24 hours): 495,812.5 pg/ml
G-CSF Serum Concentration ([1]; LNP NPA-030-2, 0.5 mg/kg, 72 hours): 1,325.6 pg/ml
time out to which protein expression was detectable ([1]; LNP, 0.005 mg/kg and 0.05 mg/kg): 72 h
G-CSF Serum Concentration ([2]; LNP NPA-030-2, 0.005 mg/kg, 2 hours): 3,447.8 pg/ml
G-CSF Serum Concentration [2, 5]: 11,454.0 pg/ml
G-CSF Serum Concentration [2, 6]: 4,960.2 pg/ml
G-CSF Serum Concentration ([2]; LNP NPA-030-2, 0.005 mg/kg, 48 hours): 686.4 pg/mL
G-CSF Serum Concentration ([2]; LNP NPA-030-2, 0.05 mg/kg, 2 hours): 20,951.4 pg/ml
G-CSF Serum Concentration [2, 7]: 20,012.8 pg/ml
G-CSF Serum Concentration [2, 8]: 19,356.2 pg/ml
G-CSF Serum Concentration ([2]; LNP NPA-030-2, 0.05 mg/kg, 48 hours): 1,963.0 pg/ml
G-CSF Serum Concentration ([2]; LNP NPA-030-2, 0.05 mg/kg, 72 hours): 47.3 pg/mL
time out to which protein expression was detectable ([2]; 0.005 mg/kg): ≥ 48 h
time out to which protein expression was detectable ([2]; 0.05 mg/kg): ≥ 72 h
Male NHP Serum G-CSF Concentration ([3]; 0.005 mg/kg IV LNP, 24 hours): <39 pg/mL
Male NHP Serum G-CSF Concentration ([3]; 0.005 mg/kg IV LNP, 48 hours): <39 pg/mL
Male NHP Serum G-CSF Concentration ([3]; 0.005 mg/kg IV LNP, 72 hours): <39 pg/mL
Male NHP Serum G-CSF Concentration ([3]; 0.005 mg/kg IV LNP, Pre-bleed): <39 pg/mL
Female NHP Serum G-CSF Concentration ([3]; 0.05 mg/kg IV LNP, 8 hours): 3,289 pg/ml
Male NHP Serum G-CSF Concentration ([3]; 0.05 mg/kg IV LNP, 8 hours): 1,722 pg/ml
Female NHP Serum G-CSF Concentration ([3]; 0.05 mg/kg IV LNP, 24 hours): 722 pg/mL
Male NHP Serum G-CSF Concentration ([3]; 0.05 mg/kg IV LNP, 24 hours): 307 pg/mL
Male NHP Serum G-CSF Concentration ([3]; 0.05 mg/kg IV LNP, 48 hours): <39 pg/mL
Male NHP Serum G-CSF Concentration ([3]; 0.05 mg/kg IV LNP, 72 hours): <39 pg/mL
Male NHP Serum G-CSF Concentration ([3]; 0.05 mg/kg IV LNP, Pre-bleed): <39 pg/mL
Male NHP Serum G-CSF Concentration ([3]; 0.5 mg/kg IV LNP, Pre-bleed, limit of detection 39 pg/ml): <39 pg/mL
time beyond which protein expression was not detected ([3]; NHP IV, G-CSF LNP): ≤ 72 h
Hematocrit (HCT) ([4]; 0.005 mg/kg, 14/18 days): 0.42 L/L
Hematocrit (HCT) ([4]; 0.005 mg/kg, 24 hours): 0.42 L/L
Hematocrit (HCT) ([4]; 0.005 mg/kg, 3 days): 0.41 L/L
Hematocrit (HCT) ([4]; 0.005 mg/kg, 7 days): 0.42 L/L
Hematocrit (HCT) ([4]; 0.005 mg/kg, Pre-dose): 0.42 L/L
Hematocrit (HCT) ([4]; 0.05 mg/kg, 14/18 days): 0.4 L/L
Hematocrit (HCT) ([4]; 0.05 mg/kg, 24 hours): 0.4 L/L
Hematocrit (HCT) ([4]; 0.05 mg/kg, 3 days): 0.39 L/L
Hematocrit (HCT) ([4]; 0.05 mg/kg, 7 days): 0.4 L/L
Hematocrit (HCT) ([4]; 0.05 mg/kg, Pre-dose): 0.44 L/L
Hematocrit (HCT) ([4]; 0.5 mg/kg, 14/18 days): 0.37 L/L
Hematocrit (HCT) ([4]; 0.5 mg/kg, 24 hours): 0.38 L/L
Red Blood Cells (RBC) ([4]; 0.5 mg/kg, 24 hours): 4.95 10^12/L
Hematocrit (HCT) ([4]; 0.5 mg/kg, 3 days): 0.38 L/L
